Data on eleven variants can be found in FireProtDB (doi:10.1016/0003-9861(92)90047-z).

Sequences and labels used below:
B1: Tryptophan synthase alpha chain, P0A877 (parent)
chain: MERYESLFAQLKERKEGAFVPFVTLGDPGIEQSLKIIDTLIEAGADALELGIPFSDPLADGPTIQNATLRAFAAGVTPAQCFEMLALIRQKHPTIPIGLLMYANLVFNKGIDEFYAQCEKVGVDSVLVADVPVEESAPFRQAALRHNVAPIFICPPNADDDLLRQIASYGRGYTYLLSRAGVTGAENRAALPLNHLVAKLKEYNAAPPLQGFGISAPDQVKAAIDAGAAGAISGSAIVKIIEQHINEPEKMLAALKVFVQPMKAATRS

In this data set the parent is B1. The note with it: Escherichia coli (strain K12); pH 7.2; Thermal; DSC; Sodium phosphate 1 mM; reversible: yes; structure 1WQ5; whole UniProt chain shown.

As to MERYESLFAQLKERKEGAFVPSVTLGDPGIEQSLKIIDTLIEAGADALELGIPFSDPLADGPTIQNATLRAFAAGVTPAQCFEMLALIRQKHPTIPIGLLMYANLVFNKGIDEFYAQCEKVGVDSVLVADVPVEESAPFRQAALRHNVAPIFICPPNADDDLLRQIASYGRGYTYLLSRAGVTGAENRAALPLNHLVAKLKEYNAAPPLQGFGISAPDQVKAAIDAGAAGAISGSAIVKIIEQHINEPEKMLAALKVFVQPMKAATRS [F22S], the Tm worked out at 60.3 °C and the “change of melting temperature, mutant - wild type (higher = more stable)” value (shortened to “change of melting temperature, mutant”) stood at 0.8 °C.

For MERYESLFAQLKERKEGAFVPFVTLGDPGIEQSLKIIDTLIEAGADALELGITFSDPLADGPTIQNATLRAFAAGVTPAQCFEMLALIRQKHPTIPIGLLMYANLVFNKGIDEFYAQCEKVGVDSVLVADVPVEESAPFRQAALRHNVAPIFICPPNADDDLLRQIASYGRGYTYLLSRAGVTGAENRAALPLNHLVAKLKEYNAAPPLQGFGISAPDQVKAAIDAGAAGAISGSAIVKIIEQHINEPEKMLAALKVFVQPMKAATRS [P53T], the melting temperature (Tm) was determined as 55.2 °C and the “change of melting temperature, mutant” value is -4.3 °C.

With MERYESLFAQLKERKEGAFVPFVTLGDPGIEQSLKIIDTLIEAGADALELGIHFSDPLADGPTIQNATLRAFAAGVTPAQCFEMLALIRQKHPTIPIGLLMYANLVFNKGIDEFYAQCEKVGVDSVLVADVPVEESAPFRQAALRHNVAPIFICPPNADDDLLRQIASYGRGYTYLLSRAGVTGAENRAALPLNHLVAKLKEYNAAPPLQGFGISAPDQVKAAIDAGAAGAISGSAIVKIIEQHINEPEKMLAALKVFVQPMKAATRS [P53H], the melting temperature (Tm) turned out to be 56.2 °C and the “change of melting temperature, mutant” value was -3.3 °C.

Regarding MERYESLFAQLKERKEGAFVPFVMLGDPGIEQSLKIIDTLIEAGADALELGIPFSDPLADGPTIQNATLRAFAAGVTPAQCFEMLALIRQKHPTIPIGLLMYANLVFNKGIDEFYAQCEKVGVDSVLVADVPVEESAPFRQAALRHNVAPIFICPPNADDDLLRQIASYGRGYTYLLSRAGVTGAENRAALPLNHLVAKLKEYNAAPPLQGFGISAPDQVKAAIDAGAAGAISGSAIVKIIEQHINEPEKMLAALKVFVQPMKAATRS [T24M], the midpoint of thermal melting (Tm) worked out at 61.8 °C and the “change of melting temperature, mutant” value came out at 2.3 °C.

MERYESLFAQLKERKEGAFVSFVTLGDPGIEQSLKIIDTLIEAGADALELGIPFSDPLADGPTIQNATLRAFAAGVTPAQCFEMLALIRQKHPTIPIGLLMYANLVFNKGIDEFYAQCEKVGVDSVLVADVPVEESAPFRQAALRHNVAPIFICPPNADDDLLRQIASYGRGYTYLLSRAGVTGAENRAALPLNHLVAKLKEYNAAPPLQGFGISAPDQVKAAIDAGAAGAISGSAIVKIIEQHINEPEKMLAALKVFVQPMKAATRS [P21S]: the Tm was determined as 55.2 °C and the “change of melting temperature, mutant” value is -4.3 °C.

Take MERYEPLFAQLKERKEGAFVPFVTLGDPGIEQSLKIIDTLIEAGADALELGIPFSDPLADGPTIQNATLRAFAAGVTPAQCFEMLALIRQKHPTIPIGLLMYANLVFNKGIDEFYAQCEKVGVDSVLVADVPVEESAPFRQAALRHNVAPIFICPPNADDDLLRQIASYGRGYTYLLSRAGVTGAENRAALPLNHLVAKLKEYNAAPPLQGFGISAPDQVKAAIDAGAAGAISGSAIVKIIEQHINEPEKMLAALKVFVQPMKAATRS [S6P]: the Tm worked out at 54.3 °C and the “change of melting temperature, mutant” value is -5.2 °C.

For MERYESLFAQLKERKEGAFVPFVTLGDPGIEQLLKIIDTLIEAGADALELGIPFSDPLADGPTIQNATLRAFAAGVTPAQCFEMLALIRQKHPTIPIGLLMYANLVFNKGIDEFYAQCEKVGVDSVLVADVPVEESAPFRQAALRHNVAPIFICPPNADDDLLRQIASYGRGYTYLLSRAGVTGAENRAALPLNHLVAKLKEYNAAPPLQGFGISAPDQVKAAIDAGAAGAISGSAIVKIIEQHINEPEKMLAALKVFVQPMKAATRS [S33L], the Tm stood at 51.9 °C and the “change of melting temperature, mutant” value is -7.6 °C.

For the variant MERYESLFAQLKERKEGAFVPFVTLGDPGIEQSLKIIDTLIEAGADALGLGIPFSDPLADGPTIQNATLRAFAAGVTPAQCFEMLALIRQKHPTIPIGLLMYANLVFNKGIDEFYAQCEKVGVDSVLVADVPVEESAPFRQAALRHNVAPIFICPPNADDDLLRQIASYGRGYTYLLSRAGVTGAENRAALPLNHLVAKLKEYNAAPPLQGFGISAPDQVKAAIDAGAAGAISGSAIVKIIEQHINEPEKMLAALKVFVQPMKAATRS [E49G], the melting temperature (Tm) was 57.7 °C and the “change of melting temperature, mutant” value is -1.8 °C.

Take MERYESLFAQLKERKEGAFVPFVTLGDPGIEQSLKIIDTLIEAGADALELDIPFSDPLADGPTIQNATLRAFAAGVTPAQCFEMLALIRQKHPTIPIGLLMYANLVFNKGIDEFYAQCEKVGVDSVLVADVPVEESAPFRQAALRHNVAPIFICPPNADDDLLRQIASYGRGYTYLLSRAGVTGAENRAALPLNHLVAKLKEYNAAPPLQGFGISAPDQVKAAIDAGAAGAISGSAIVKIIEQHINEPEKMLAALKVFVQPMKAATRS [G51D]: the Tm came to 55 °C and the “change of melting temperature, mutant” value was -4.5 °C.

For MERYESLFAQLKERKEGAFVPFVTLGDLGIEQSLKIIDTLIEAGADALELGIPFSDPLADGPTIQNATLRAFAAGVTPAQCFEMLALIRQKHPTIPIGLLMYANLVFNKGIDEFYAQCEKVGVDSVLVADVPVEESAPFRQAALRHNVAPIFICPPNADDDLLRQIASYGRGYTYLLSRAGVTGAENRAALPLNHLVAKLKEYNAAPPLQGFGISAPDQVKAAIDAGAAGAISGSAIVKIIEQHINEPEKMLAALKVFVQPMKAATRS [P28L], the Tm was determined as 54.9 °C and the “change of melting temperature, mutant” value is -4.6 °C.

Regarding MERYESLFAQLKERKEGAFVPFVTLGDPGIEQSLKIIDTLIEAGADALELGIPFSGPLADGPTIQNATLRAFAAGVTPAQCFEMLALIRQKHPTIPIGLLMYANLVFNKGIDEFYAQCEKVGVDSVLVADVPVEESAPFRQAALRHNVAPIFICPPNADDDLLRQIASYGRGYTYLLSRAGVTGAENRAALPLNHLVAKLKEYNAAPPLQGFGISAPDQVKAAIDAGAAGAISGSAIVKIIEQHINEPEKMLAALKVFVQPMKAATRS [D56G], the midpoint of thermal melting (Tm) was determined as 57.5 °C and the “change of melting temperature, mutant” value was -2 °C.
